Laboratory results published in patent US12655405B2, “Sequence specific degradation of single-stranded polynucleotides with CARD1 nuclease” (The Rockefeller University, priority 2020, dated 2026).

Legend:
Tresu_2185 (CARD1) = assay type: biochemical, Treponema succinifaciens
Description: (§1) The reactions were done in a reaction buffer (20 mM Tris-HCl, pH 7.5, 150 mM NaCl, 1 mM DTT, and 5 mM MnCl2, unless otherwise stated, with 250 nM CARD1 and 2.5 uM of cA4, with 2 μg M13 ssDNA (NEB) (FIG. 1b), 500 ng of non-linearized and linearized ΦX174 dsDNA (NEB) (FIGS. 1d, e, respectively) and 2 μg ΦX174 ssDNA (NEB) (FIG. 1a). cA4 and cA6 was obtained from Biolog Life Science Institute GmbH & Co. KG (Bremen, Germany). The reaction products were visualized by agarose gel electrophoresis. For the RNA oligo cleavage assay, 250 nM of a Cy3-labelled RNA oligo was added to the reaction. The reaction products were run on Mini-PROTEAN TBE-Urea precast gel (Bio-Rad), and visualized on a TYPHOON IMAGE SCANNER. For degradation of ssRNA or dsRNA ladders, 1 ug of either ssRNA ladder (NEB) or dsRNA ladder (NEB) was digested. The reaction products were visualized by agarose gel electrophoresis. At the indicated timepoints, all reaction were stopped by the addition of 25 mM of EDTA.

[1] = system: circular ΦX174 and M13 ssDNA; experiment: In vitro DNA cleavage assay, agarose gel; assay type: biochemical
Description: as §1

ΦX174 ssDNA = experiment: Next-generation sequencing of ssDNA degradation products (ΦX174); assay type: biochemical
Description: (§2) To assess the ssDNA cleavage patterns of CARD1, 2 ug of ΦX174 virion DNA (New England Biolabs) or M13 ssDNA (M13mp18) (New England Biolabs) was first digested by 250 nM CARD1 with 2.5 uM of cA4 in a buffer consisting of 20 mM Tris pH 7.5, 150 mM NaCl, 1 mM DTT, and 5 mM MnCl2. At the specified time points, the reaction was quenched by adding 25 mM of EDTA. Half the reaction was visualized by agarose gel electrophoresis. The remaining digestion products from the 2 hour timepoint were purified by phenol chloroform extraction.
Without further fragmentation, the purified digested DNA was subjected to the Accel-NGS 1S Plus DNA Library Kit (Swift Biosciences), proceeding according to the manufacturer's protocol, using a 1.5× ratio of magnetic beads (AMPure XP beads by Beckman Coulter) to also include small DNA fragments. One of the library preparation steps involves the addition of on average 8 nucleotides to the 3′ end of the DNA. The 5′ end of the input DNA molecules remains unchanged. Paired-end sequencing was performed on an Illumina MiSeq. The 5′ end of each read R1 represents the start of a DNA molecule, and thus a CARD1 cut site. Using a custom python script, the location of 7,020,067 ΦX174 reads (mapping to Genbank reference NC_001422) and 7,670,616 M13 reads (mapping to Genbank reference X02513) was determined. To account for reads mapping at the circular junctions, 65 nucleotides of the first 5′ end of the maps were copied and added at the 3′ end of the maps. The DNA sequence 20 nucleotides upstream and downstream of the cut sites was extracted using a custom Python script, and the CARD1 cleavage motifs for ΦX174 and the M13 were determined separately using Weblogo3 (38), with basal nucleotide compositions determined by the compositions in each map (ΦX174 with A:24.0, C:21.4, G:23.3, T:31.3, and M13 with A:24.4, C:21.1, G:21.1, T:33.4). For the fragment size analysis, 8 nucleotides were removed from all the reads from the 3′ end pair mate by the “Trim Ends” option in the Geneious Bioinformatics Software platform (39). Using the STAR aligner (version 2.7.3) (40), 7,505,136 reads were successfully mapped to ΦX174, and 8,179,356 reads were successfully mapped to M13, using default arguments with the addition of --alignIntronMax 1 --alignMatesGapMax 6000 --peOverlapNbasesMin 5 --alignEndsProtrude 10 ConcordantPair.

M13 ssDNA = experiment: Next-generation sequencing of ssDNA degradation products (M13); assay type: biochemical
Description: as §2
Without further fragmentation, the purified digested DNA was subjected to the Accel-NGS 1S Plus DNA Library Kit (Swift Biosciences), proceeding according to the manufacturer's protocol, using a 1.5× ratio of magnetic beads (AMPure XP beads by Beckman Coulter) to also include small DNA fragments. One of the library preparation steps involves the addition of on average 8 nucleotides to the 3′ end of the DNA. […] The 5′ end of each read R1 represents the start of a DNA molecule, and thus a CARD1 cut site. Using a custom python script, the location of 7,020,067 ΦX174 reads (mapping to Genbank reference NC_001422) and 7,670,616 M13 reads (mapping to Genbank reference X02513) was determined. To account for reads mapping at the circular junctions, 65 nucleotides of the first 5′ end of the maps were copied and added at the 3′ end of the maps. […]

[2] = system: ssRNA ladder, dsRNA ladder; experiment: Degradation of ssRNA or dsRNA ladders; assay type: biochemical; conditions: 15 minutes
Description: as §1

[3] = system: RNA oligos with either 15 adenines, uracils, or cytosines; conditions: 5′ fluorophore and 3′ quencher; 15 A, U or C
Description: For determining the nucleotide cleavage preference of CARD1, the reaction was performed as above, with 1 uM of each RNA oligo (IDT). […] Fluorescent measurements were taken in a TECAN plate reader, using values from when the reaction was complete. 0.5 ul of RNaseI (Thermo Fisher Scientific), which cuts next to all RNA nucleotides, was used as a positive control.

[4] = system: recA, lexA, uvrA and umuC transcripts; experiment: RT-qPCR of SOS-induced genes; assay type: cell-based, Staphylococcus aureus RN4220; conditions: after aTc induction; compared to d-CARD1; cells expressing Cas10HD
Description: Cells carrying pTarget and a pCRISPR containing either CARD1 or dCARD1 were grown overnight in triplicate, diluted 1/100 into fresh BHI with 10 ug/ml of chloramphenicol and outgrown for an hour. The cells were then diluted to an OD of 0.1. To induce targeting, aTc was added to a final concentration of 250 ng/ml. The cells were incubated with shaking for 20 minutes before being spun down at 6000×g for 5 minutes, and then lysed in PBS with 1 mg/ml of lysostaphin and 2 mg/ml of lysozyme for 10 minutes at 37° C. RNA was purified using Direct-zol RNA miniprep kit (Zymo Research) according to the manufacturer's protocol, followed by DNA depletion using TURBO DNA-free kit (Invitrogen) according to the manufacturer's protocol. To produce cDNA, approximately 2 ug of DNA-depleted RNA was treated using the SuperScript IV Reverse Transcriptase kit (Invitrogen) according to the manufacturer's protocol and random hexamer primers. The RT-qPCR reaction was performed using Fast SYBR Green Master Mix (Life Technologies) with an input of about 100 ng cDNA, in biological triplicate, using […] of each primer, on a QuantStudio 3 qPCR machine (Thermo Fisher). The housekeeping gene rho was used as an internal normalization control (37).

[5] = system: Staphylococcus aureus RN4220; experiment: Growth curves, in vivo CARD1 toxicity induction; assay type: cell-based; conditions: pTarget + pCRISPR variant, no antibiotic selection of pTarget
Description: For in vivo CARD1 toxicity induction, triplicate RN4220 overnight cultures harbouring pTarget and a pCRISPR are diluted 1:100, outgrown for about an hour, and normalized for OD. Cells are then seeded in a 96 well plate. To induce targeting, 6.25-12.5 ng/ml of anhydrotetracycline (aTc) is added to the appropriate wells. Absorbance at 600 nm is then measured every 10 minutes by a microplate reader (TECAN Infinite 200 PRO). To analyze targeting escapers, cells from the end of the experiment (either cells from wells without aTc, i.e. naïve cells, or cells from wells that recovered later in the time course due to CARD1 toxicity) are re-streaked on BHI agar plates, and individual colonies were launched in liquid culture, diluted the next day, and used for a new time course experiment. From these overnight cultures, plasmid DNA was isolated (QIAgen Spin Miniprep Kit), digested by BamHI-HF (single-cutter for both pTarget and pCRISPR) (New England Biolabs), and visualized by gel electrophoresis. The deletion of important features in pTarget (making it unable to be targeted by pCRISPR) or pCRISPR was confirmed by Sanger sequencing.

S. aureus viability = experiment: CARD1 toxicity assay (cfu enumeration); assay type: cell-based, Staphylococcus aureus
Description: To measure the effect of CARD1 activity on S. aureus viability over time, colonies of S. aureus harbouring pTarget and the specified pCRISPR were launched in liquid culture overnight in triplicate. The next day, cells were diluted 1:100 and grown out for about an hour, and normalized for OD. One aliquot was taken from each culture, and then aTc was added to induce CRISPR targeting and CARD1 activity (to a concentration of 3 ng/ml in FIG. 4c or 125 ng/ml in FIG. 5c). At each timepoint, cell aliquots were removed, centrifuged, resuspended in media lacking aTc, and serial dilutions were plated on solid BHI agar plates with or without aTc. All viable cells should grow on the solid agar plates, but only targeting escapers (cells that recover due to mutations in pTarget or pCRISPR) should form CFUs on plates with aTc.

pTarget = experiment: Plasmid curing assay; assay type: cell-based, Staphylococcus aureus; conditions: but not pCRISPR
Description: To assess CARD1's ability to promote plasmid curing under low transcription conditions, a plasmid curing assay was performed, by adapting a known approach. Briefly, overnight cultures of S. aureus cells harbouring pTarget and a pCRISPR containing either Csm6, dCsm6, or CARD1 were diluted to exactly OD 0.15 in tryptic soy broth with 10 ug/ml chloramphenicol. After removing a cell aliquot for the 0 timepoint, aTc was added to a concentration of 9.3 ng/ml (FIG. 4e) or 125 ng/ml (FIG. 4f) and the cells were incubated at 37° C., with further aliquots taken at the indicated times. The cells were then lysed, and the plasmid DNA isolated using a QIAprep Miniprep kit (Qiagen) according to the manufacturer's protocol (Qiagen). 400 ng of plasmid was then linearized using BamHI-HF (New England Biolabs), which cuts both pTarget and pCRISPR once, followed by visualization by gel electrophoresis.

phage Φ12γ3 [6] = experiment: In vivo anti-phage immunity growth curves (Φ12γ3); assay type: cell-based, Staphylococcus aureus RN4220
Description: For in vivo anti-phage immunity, cells harbouring various pCRISPRs were launched in triplicate overnight, diluted 1:100, outgrown for about an hour, and normalized for OD. Cells were seeded into a 96 well plate. Phage Φ12γ3 (25) […] was added at the appropriate multiplicity of infection, and OD measurements were taken every 10 minutes.

phage Φ12γ3 [7] = experiment: Liquid anti-phage infection, PFU counts over time; assay type: cell-based, Staphylococcus aureus RN4220
Description: To obtain CFU and PFU counts over time from cultures infected with phage, RN4220 cultures harbouring various pCRISPRs were launched overnight, diluted 1:100, and outgrown for about one hour. Cells were then infected with phage Φ12γ3 at an MOI of 10, and an aliquot was taken shortly after to obtain PFUs at time 0. The cultures were then incubated further, with aliquots taken at 1 and 4 hours.

[8] = ORF9 and ORF27 transcripts targeted

With Cyclic Tetra-Adenylate [cA4] the “degradation of RNA oligo by CARD1 in the presence of the cyclic oligoadenylate” value (Tresu_2185 (CARD1); 60 nucleotide RNA oligo) was “degraded in the presence of cA4”, the “degradation of ssDNA by Tresu_2185 on addition of the cyclic oligoadenylate” value (Tresu_2185 (CARD1); circular ΦX174 and M13 ssDNA, 250 nM CARD1, 2.5 uM cA, 5 mM MnCl2, agarose gel) was “resulted in the degradation of circular ΦX174 and M13 ssDNA” and the “cleavage of dsDNA by Tresu_2185 on addition of the cyclic oligoadenylate” value (Tresu_2185 (CARD1); supercoiled or linearized ΦX174 dsDNA) was “did not promote cleavage”.

B1: CARD1: cA4-activated ssDNA and ssRNA nuclease of Treponema succinifaciens, SEQ ID NO:1; N-terminal CARF domain, C-terminal REase domain (protein, listed as Treponema succinifaciens)
chain: MKETILVNLVSEQTIPNVQFIKWYFNKKQTPMKILLVSTKEMEQKEKSLFIKNALHFSDSFVEWETIHTDGNDISKTENILTDYFRDNEYKNIIVNITGGTKIMSLAAFDFFNNKPNTEIFYQPIGKELQELYPNKQKYDMFEVLSLKEYLDAHGISYKYDNECVKDWNYNKTVYDLCVADNRELIKGMIALQNNSYFNNVYKRKDFLDFTQIEEEKFIAINHPAATKENMIKILQIFGFDVSRIEHKHIRYITGGWFEEYVYQKICNEYHNVDEKNVALNVTIQKGNDKNELDVIYLDKDNKLHVIECKSFVDGNEGNRVLNDALYKLQAIIKSKFGLYVKQHLYTKSIIEKETPLNRAKEFGIDIKDGTQL
With B1 the “nuclease activity on ssDNA” value ([1]; ΦX174 and M13 ssDNA, smear of products) was “cA4-activated, non-specific ssDNA nuclease”, the “cation requirement of ssDNA degradation” value ([1]; ΦX174 ssDNA, with or without MnCl2) was “required the addition of Mn cation” and the average product size (ΦX174 ssDNA; stated for both ΦX174 and M13 ssDNA degradation products) was roughly 150 nucleotides. The cleavage site preference (ΦX174 ssDNA; stated for both ΦX174 and M13 ssDNA degradation products, WebLogo) was “preferentially upstream of T(A/G) sites”, the “cuts that occur at the 25 most frequent positions” value (ΦX174 ssDNA; ΦX174, 5′ end mapping, 2 hours timepoint) was 26.7% and the “average fragment length of degradation products” value (ΦX174 ssDNA; ΦX174, 2 hours timepoint) was 163.6 nucleotides. The “cuts that occur at the 25 most frequent positions” value (M13 ssDNA; M13, 5′ end mapping) was 31.1%, the “average fragment length of degradation products” value (M13 ssDNA; M13, 2 hours timepoint) was 150.1 nucleotides and the “degradation of single-stranded versus double-stranded RNA” value [2] was “Single-stranded RNA, but not double-stranded RNA, was degraded”. The “degradation of homopolymer RNA oligos (sequence preference)” value [3] was “able to efficiently degrade RNAs consisting of all three bases”, the “expression of recA, lexA, uvrA and umuC (SOS response), normalized against rho” value [4] was “significant increase” and the “growth of cultures (OD600) after addition of aTc” value [5] was “severe growth defect”. For the same molecule, the “fraction of colonies formed in the absence of aTc that come from bona fide dormant cells” value (S. aureus viability; compared with colonies resistant to aTc (escapers)) was “approximately half”, the “colony counts (viable cells) after CARD1 induction” value (S. aureus viability; three hours of target transcription, plated on media lacking aTc) was “initial decrease in colony counts of an order of magnitude” and the “time after addition of the inducer at which pTarget was cleared” value (pTarget) was 20 minutes. For the same molecule, the “immunity in cells that express Cas10^HD” value (phage Φ12γ3 [6]; [8]) was “able to provide immunity”, the “need of CARD1 nuclease activity for immunity, early target” value (phage Φ12γ3 [6]; early ORF9 transcript of Φ12γ3 targeted) was “not required for immunity” and the “survival of cultures after infection, late target” value (phage Φ12γ3 [6]; late ORF27 transcript of Φ12γ3 targeted) was “able to survive infection”. The “phage titer in cultures of cells that express Cas10^HD” value (phage Φ12γ3 [7]; [8]) was “reduce the phage titer” and the “phage propagation (pfu) at different times after infection” value (phage Φ12γ3 [7]; ORF27 transcript of Φ12γ3 targeted) was “effectively eliminated Φ12γ3 from the culture”.
